Measured values reported in the Immune Epitope Database (IEDB).

Assays:
[1] = target: HLA-B*40:01; assay: IEDB peptide-MHC binding, purified MHC/direct/fluorescence; filed as Kd, often an IC50 or EC50 that approximates it; ≥ and ≤ were set here for values at or beyond the usual limits of such assays; details: source organism: Influenza A virus (A/WSN/1933(H1N1))
[2] = target: HLA-B*44:02; assay: as above; details: source organism: Influenza A virus (A/WSN/1933(H1N1))
[3] = target: HLA-B*18:01; assay: as above; details: source organism: Influenza A virus (A/WSN/1933(H1N1))
[4] = target: HLA-A*23:01; assay: IEDB peptide-MHC binding, purified MHC/competitive/radioactivity; filed as Kd, often an IC50 or EC50 that approximates it; ≥ and ≤ were set here for values at or beyond the usual limits of such assays
[5] = target: HLA-A*26:01; assay: as above
[6] = target: HLA-A*29:02; assay: as above
[7] = target: HLA-A*24:02; assay: as above
[8] = target: HLA-A*01:01; assay: as above
[9] = target: HLA-A*30:02; assay: as above
[10] = target: HLA-A*30:01; assay: as above
[11] = target: HLA-A*32:01; assay: as above
[12] = target: HLA-B*15:01; assay: as above
[13] = target: HLA-B*35:01; assay: as above
[14] = target: HLA-B*58:01; assay: IEDB peptide-MHC binding, purified MHC/direct/fluorescence; filed as Kd, often an IC50 or EC50 that approximates it; ≥ and ≤ were set here for values at or beyond the usual limits of such assays
[15] = target: HLA-B*57:01; assay: as above; details: source organism: Vibrio alginolyticus 12G01
[16] = target: HLA-B*53:01; assay: IEDB peptide-MHC binding, purified MHC/competitive/radioactivity; filed as Kd, often an IC50 or EC50 that approximates it; ≥ and ≤ were set here for values at or beyond the usual limits of such assays
[17] = target: HLA-B*15:01; assay: IEDB peptide-MHC binding, purified MHC/direct/fluorescence; filed as Kd, often an IC50 or EC50 that approximates it; ≥ and ≤ were set here for values at or beyond the usual limits of such assays; details: source organism: SARS-CoV1
[18] = target: HLA-A*01:01; assay: as above; details: source organism: SARS-CoV1
[19] = source organism: SARS coronavirus Tor2
[20] = source organism: Mammarenavirus brazilense
[21] = source organism: Vaccinia virus WR
[22] = source organism: Influenza A virus (A/Ann Arbor/6/1960(H2N2))
[23] = source organism: Lassa virus Josiah
[24] = source organism: Dengue virus 2 Jamaica/1409/1983
[25] = source organism: Dengue virus 4 Philippines/H241/1956
[26] = source organism: Dengue virus 3 Martinique/1243/1999
[27] = source organism: Mammarenavirus guanaritoense
[28] = source organism: Mammarenavirus lassaense

## AESRKLLLI
[1]
  Kd: 158 nM
[2]
  Kd: ≥ 53000 nM
[3]
  Kd: ≥ 20000 nM

## LYIIKLVFL
[4]; [19]
  Kd: 0.179 nM
[5]; [19]
  Kd: ≥ 21000 nM
[6]; [19]
  Kd: 3110 nM
[7]; [19]
  Kd: 0.268 nM
[8]; [19]
  Kd: 2150 nM
[9]; [19]
  Kd: 13500 nM

## HSIKRNYPY
[5]; [20]
  Kd: 660 nM
[6]; [20]
  Kd: 262 nM
[8]; [20]
  Kd: 53 nM
[10]; [20]
  Kd: 141 nM
[11]; [20]
  Kd: 1720 nM
[9]; [20]
  Kd: 42.3 nM

## SIKNLVSQF
[12]; [21]
  Kd: 24.7 nM

## HYVRITGLY
[4]; [19]
  Kd: 7530 nM
[5]; [19]
  Kd: 149 nM
[6]; [19]
  Kd: 111 nM
[7]; [19]
  Kd: ≥ 22700 nM
[8]; [19]
  Kd: 18200 nM
[9]; [19]
  Kd: ≥ 27600 nM

## RQEMASRGLW
[4]; [22]
  Kd: 1730 nM
[5]; [22]
  Kd: ≥ 69700 nM
[6]; [22]
  Kd: 1880 nM
[7]; [22]
  Kd: 9010 nM
[8]; [22]
  Kd: ≥ 70400 nM
[9]; [22]
  Kd: 4350 nM

## SSGCYIHFF
[5]; [23]
  Kd: ≥ 64100 nM
[6]; [23]
  Kd: ≥ 10000 nM
[8]; [23]
  Kd: 195 nM
[10]; [23]
  Kd: 6860 nM
[11]; [23]
  Kd: ≥ 33600 nM
[9]; [23]
  Kd: 11500 nM

## TAVAPSMTM
[13]; [24]
  Kd: 15.7 nM

## EMCEDTVTY
[5]; [25]
  Kd: 3900 nM
[13]; [25]
  Kd: 681 nM
[12]; [25]
  Kd: 28.3 nM
[9]; [25]
  Kd: 14300 nM

## ITEMLQKEY
[5]; [23]
  Kd: ≥ 77900 nM
[6]; [23]
  Kd: 7650 nM
[8]; [23]
  Kd: 18.8 nM
[10]; [23]
  Kd: 4750 nM
[11]; [23]
  Kd: ≥ 77800 nM
[9]; [23]
  Kd: 172 nM

## VSEPELCLL
[14]; source organism: Vibrio alginolyticus 12G01
  Kd: ≥ 20000 nM
[15]
  Kd: ≥ 20000 nM

## LFFFVYENAF
[4]; [19]
  Kd: 58.8 nM
[5]; [19]
  Kd: 14500 nM
[6]; [19]
  Kd: 107 nM
[7]; [19]
  Kd: 185 nM
[8]; [19]
  Kd: 9720 nM
[9]; [19]
  Kd: ≥ 51100 nM

## WIAASIILEF
[12]; [24]
  Kd: 6.22 nM

## EPGVVSPTSY
[13]; [26]
  Kd: 592 nM
[16]; [26]
  Kd: 313 nM

## FTERSDKSY
[17]
  Kd: 497 nM
[14]; source organism: SARS-CoV1
  Kd: 2800 nM
[18]
  Kd: 65 nM
[4]; [19]
  Kd: ≥ 77800 nM
[5]; [19]
  Kd: 6230 nM
[6]; [19]
  Kd: 68.5 nM
[7]; [19]
  Kd: ≥ 77600 nM
[9]; [19]
  Kd: 53.5 nM

## AFLPFTLGI
[4]; [19]
  Kd: ≥ 45800 nM
[5]; [19]
  Kd: ≥ 77900 nM
[6]; [19]
  Kd: 529 nM
[7]; [19]
  Kd: ≥ 81800 nM
[8]; [19]
  Kd: ≥ 78100 nM
[9]; [19]
  Kd: 8040 nM

## PVSDLKYSW
[16]; source organism: Dengue virus 4 Dominica/814669/1981
  Kd: 1690 nM

## GQTGIQRTVF
[12]; [25]
  Kd: 5.95 nM

## STGNYVHCF
[5]; [27]
  Kd: ≥ 69200 nM
[6]; [27]
  Kd: ≥ 35900 nM
[8]; [27]
  Kd: 1300 nM
[10]; [27]
  Kd: 2740 nM
[11]; [27]
  Kd: 12100 nM
[9]; [27]
  Kd: ≥ 20300 nM

## LKEPCPSGTY
[4]; [19]
  Kd: ≥ 70000 nM
[5]; [19]
  Kd: 5440 nM
[6]; [19]
  Kd: 1560 nM
[7]; [19]
  Kd: ≥ 70300 nM
[8]; [19]
  Kd: 14100 nM
[9]; [19]
  Kd: 69.8 nM

## LTKHPNQEY
[4]; [19]
  Kd: ≥ 77800 nM
[5]; [19]
  Kd: ≥ 34300 nM
[6]; [19]
  Kd: 3400 nM
[7]; [19]
  Kd: ≥ 77600 nM
[8]; [19]
  Kd: 17300 nM
[9]; [19]
  Kd: 153 nM

## GMYCRCSHG
[12]; [21]
  Kd: 216 nM

## ILKKLSPYF
[12]; [21]
  Kd: 1.18 nM

## PFGDSYIVI
[4]; [25]
  Kd: 723 nM

## AGFTAGLSY
[4]; [28]
  Kd: ≥ 69900 nM
[5]; [28]
  Kd: ≥ 77900 nM
[6]; [28]
  Kd: 60.4 nM
[7]; [28]
  Kd: ≥ 77500 nM
[8]; [28]
  Kd: ≥ 21100 nM
[9]; [28]
  Kd: 149 nM
